By Kd is commonly meant a measure of binding affinity in units of concentration. High values mean a looser complex, low ones a tighter complex.

This is an account of results in PMC4335501.

The test concerns the target HAdV-52 short fiber knob (human adenovirus type 52 (HAdV-52)). As to the kind of experiment: SPR; 52SFK captured by its His-tag on a Ni-NTA chip (700 RU); fetuin or asialofetuin type II as analytes, two-fold series 125 to 1 μM; 25°C; HBS-EP+; Biacore T100. For orientation: Surface plasmon resonance follows binding to a sensor surface in real time, without labels.

B1: sialylated fetuin glycoprotein (natural protein)
chain: IPLDPVAGYKEPACDDPDTEQAALAAVDYINKHLPRGYKHTLNQIDSVKVWPRRPTGEVYDIEIDTLETTCHVLDPTPLANCSVRQQTQHAVEGDCDIHVLKQDGQFSVLFTKCDSSPDSAEDVRKLCPDCPLLAPLNDSRVVHAVEVALATFNAESNGSYLQLVEISRAQFVPLPVSVSVEFAVAATDCIAKEVVDPTKCNLLAEKQYGFCKGSVIQKALGGEDVRVTCTLFQTQPVIPQPQPDGAEAEAPSAVPDAAGPTPSAAGPPVASVVVGPSVVAVPLPLHRAHYDLRHTFSGVASVESSSGEAFHVGKTPIVGQPSIPGGPVRLCPGRIRYFKI
modifications: sialylated glycans
The molecule B1 yielded a Kd of 37 µM.
